From publication PMC8641752

What was measured:
Assay in all cases: co-IP; substrate (Hmg2-GFP, Ste6*-GFP, CPY*-GFP with GFP-Trap; Pdr5*-Myc with Myc Trap) precipitated from yeast microsomes solubilised in Tween IP buffer (500 mM NaCl, 50 mM Tris pH 7.5, 10 mM EDTA, 1.5% Tween-20), overnight 4°C; blots with anti-HA, anti-Cdc48
Hmg2-GFP (S. cerevisiae) = Hmg2-GFP (S. cerevisiae) (UniProt P12684)
[1] = target: Pdr5*-Myc (S. cerevisiae) (UniProt P33302)
[2] = target: Ste6*-GFP (S. cerevisiae) (UniProt P12866)

Measured: fraction of Dfm1-5Ashp bound compared with wild-type Dfm1

Sequence of Dfm1-5Ashp (Q12743 whole entry): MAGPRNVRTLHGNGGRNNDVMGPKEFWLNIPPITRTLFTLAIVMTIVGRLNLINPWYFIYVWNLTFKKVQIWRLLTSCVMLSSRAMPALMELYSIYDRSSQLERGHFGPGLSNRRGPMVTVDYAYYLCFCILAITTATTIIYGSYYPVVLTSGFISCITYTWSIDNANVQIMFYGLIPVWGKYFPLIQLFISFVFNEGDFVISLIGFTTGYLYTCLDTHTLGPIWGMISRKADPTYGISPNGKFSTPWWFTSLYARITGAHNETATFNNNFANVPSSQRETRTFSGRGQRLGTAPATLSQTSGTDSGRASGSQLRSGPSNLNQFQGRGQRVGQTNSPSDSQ
Sequence of UniProt P12866 (P12866 whole entry): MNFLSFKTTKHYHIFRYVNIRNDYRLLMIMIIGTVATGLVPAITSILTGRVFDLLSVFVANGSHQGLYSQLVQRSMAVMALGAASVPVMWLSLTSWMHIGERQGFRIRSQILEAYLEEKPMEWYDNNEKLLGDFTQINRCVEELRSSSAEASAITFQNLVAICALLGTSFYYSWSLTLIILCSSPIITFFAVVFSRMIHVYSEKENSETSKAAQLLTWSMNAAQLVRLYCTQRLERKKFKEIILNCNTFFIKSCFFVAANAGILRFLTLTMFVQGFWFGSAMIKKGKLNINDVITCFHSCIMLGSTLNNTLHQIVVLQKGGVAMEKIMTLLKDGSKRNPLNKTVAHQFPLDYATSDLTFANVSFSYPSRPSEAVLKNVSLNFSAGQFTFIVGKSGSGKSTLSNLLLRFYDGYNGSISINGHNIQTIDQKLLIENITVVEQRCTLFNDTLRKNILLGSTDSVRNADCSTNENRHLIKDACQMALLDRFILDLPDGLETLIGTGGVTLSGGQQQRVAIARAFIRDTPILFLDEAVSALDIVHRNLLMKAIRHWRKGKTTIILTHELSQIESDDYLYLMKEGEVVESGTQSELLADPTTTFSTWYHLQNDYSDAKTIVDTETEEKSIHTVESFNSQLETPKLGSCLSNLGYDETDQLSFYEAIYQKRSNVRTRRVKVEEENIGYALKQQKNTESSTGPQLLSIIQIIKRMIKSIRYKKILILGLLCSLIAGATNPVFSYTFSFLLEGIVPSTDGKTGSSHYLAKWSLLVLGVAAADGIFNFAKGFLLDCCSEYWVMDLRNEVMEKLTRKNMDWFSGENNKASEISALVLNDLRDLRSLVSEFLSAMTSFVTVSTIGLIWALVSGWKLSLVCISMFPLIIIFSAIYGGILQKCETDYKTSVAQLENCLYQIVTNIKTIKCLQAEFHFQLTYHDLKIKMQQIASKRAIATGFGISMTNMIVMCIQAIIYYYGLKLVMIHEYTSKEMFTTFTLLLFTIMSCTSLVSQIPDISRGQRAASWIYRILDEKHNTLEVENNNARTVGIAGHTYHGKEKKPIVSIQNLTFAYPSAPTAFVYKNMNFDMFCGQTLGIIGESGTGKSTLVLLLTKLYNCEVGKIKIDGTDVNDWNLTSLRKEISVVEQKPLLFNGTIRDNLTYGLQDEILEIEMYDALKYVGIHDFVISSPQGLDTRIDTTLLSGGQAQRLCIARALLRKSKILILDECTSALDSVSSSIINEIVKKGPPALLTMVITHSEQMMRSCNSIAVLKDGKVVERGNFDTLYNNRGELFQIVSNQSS
Sequence of UniProt P33302 (P33302 whole entry): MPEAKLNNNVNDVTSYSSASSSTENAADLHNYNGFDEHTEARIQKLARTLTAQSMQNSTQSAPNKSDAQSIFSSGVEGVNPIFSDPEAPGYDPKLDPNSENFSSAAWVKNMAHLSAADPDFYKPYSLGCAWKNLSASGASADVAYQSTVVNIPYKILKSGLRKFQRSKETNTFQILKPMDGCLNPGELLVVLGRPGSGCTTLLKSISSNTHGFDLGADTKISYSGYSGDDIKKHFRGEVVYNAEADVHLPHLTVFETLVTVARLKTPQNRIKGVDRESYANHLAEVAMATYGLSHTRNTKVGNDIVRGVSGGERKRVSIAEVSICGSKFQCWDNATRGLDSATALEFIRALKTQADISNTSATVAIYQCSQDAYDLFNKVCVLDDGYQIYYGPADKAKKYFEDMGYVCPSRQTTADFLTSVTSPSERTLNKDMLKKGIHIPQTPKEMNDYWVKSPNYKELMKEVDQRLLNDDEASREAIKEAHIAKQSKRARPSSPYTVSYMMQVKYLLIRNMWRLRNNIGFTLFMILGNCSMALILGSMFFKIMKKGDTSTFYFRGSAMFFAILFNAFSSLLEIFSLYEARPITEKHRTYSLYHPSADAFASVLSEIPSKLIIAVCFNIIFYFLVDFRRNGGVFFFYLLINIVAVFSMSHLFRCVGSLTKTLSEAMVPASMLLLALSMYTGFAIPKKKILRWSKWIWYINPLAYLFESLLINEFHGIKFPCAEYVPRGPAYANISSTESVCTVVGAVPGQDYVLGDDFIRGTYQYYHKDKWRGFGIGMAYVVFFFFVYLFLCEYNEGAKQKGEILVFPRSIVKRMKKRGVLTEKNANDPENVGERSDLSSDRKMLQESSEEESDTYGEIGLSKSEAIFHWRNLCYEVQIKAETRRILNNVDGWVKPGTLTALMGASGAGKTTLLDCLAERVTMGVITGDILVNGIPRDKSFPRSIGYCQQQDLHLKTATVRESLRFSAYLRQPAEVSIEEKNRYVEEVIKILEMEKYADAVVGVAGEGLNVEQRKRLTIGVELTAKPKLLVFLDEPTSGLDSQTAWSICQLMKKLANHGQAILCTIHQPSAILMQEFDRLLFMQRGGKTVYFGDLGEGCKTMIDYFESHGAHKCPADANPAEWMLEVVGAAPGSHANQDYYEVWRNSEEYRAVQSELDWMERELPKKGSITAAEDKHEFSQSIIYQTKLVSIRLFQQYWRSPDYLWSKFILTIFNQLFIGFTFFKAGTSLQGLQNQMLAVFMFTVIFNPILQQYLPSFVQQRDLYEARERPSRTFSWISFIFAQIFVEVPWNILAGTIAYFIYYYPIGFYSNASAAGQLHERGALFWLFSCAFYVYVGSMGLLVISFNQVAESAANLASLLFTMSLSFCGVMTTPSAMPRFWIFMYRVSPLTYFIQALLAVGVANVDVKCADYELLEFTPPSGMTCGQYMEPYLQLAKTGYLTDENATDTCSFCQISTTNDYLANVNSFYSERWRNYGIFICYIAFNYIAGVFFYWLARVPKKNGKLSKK
Sequence of UniProt P12684 (P12684 whole entry): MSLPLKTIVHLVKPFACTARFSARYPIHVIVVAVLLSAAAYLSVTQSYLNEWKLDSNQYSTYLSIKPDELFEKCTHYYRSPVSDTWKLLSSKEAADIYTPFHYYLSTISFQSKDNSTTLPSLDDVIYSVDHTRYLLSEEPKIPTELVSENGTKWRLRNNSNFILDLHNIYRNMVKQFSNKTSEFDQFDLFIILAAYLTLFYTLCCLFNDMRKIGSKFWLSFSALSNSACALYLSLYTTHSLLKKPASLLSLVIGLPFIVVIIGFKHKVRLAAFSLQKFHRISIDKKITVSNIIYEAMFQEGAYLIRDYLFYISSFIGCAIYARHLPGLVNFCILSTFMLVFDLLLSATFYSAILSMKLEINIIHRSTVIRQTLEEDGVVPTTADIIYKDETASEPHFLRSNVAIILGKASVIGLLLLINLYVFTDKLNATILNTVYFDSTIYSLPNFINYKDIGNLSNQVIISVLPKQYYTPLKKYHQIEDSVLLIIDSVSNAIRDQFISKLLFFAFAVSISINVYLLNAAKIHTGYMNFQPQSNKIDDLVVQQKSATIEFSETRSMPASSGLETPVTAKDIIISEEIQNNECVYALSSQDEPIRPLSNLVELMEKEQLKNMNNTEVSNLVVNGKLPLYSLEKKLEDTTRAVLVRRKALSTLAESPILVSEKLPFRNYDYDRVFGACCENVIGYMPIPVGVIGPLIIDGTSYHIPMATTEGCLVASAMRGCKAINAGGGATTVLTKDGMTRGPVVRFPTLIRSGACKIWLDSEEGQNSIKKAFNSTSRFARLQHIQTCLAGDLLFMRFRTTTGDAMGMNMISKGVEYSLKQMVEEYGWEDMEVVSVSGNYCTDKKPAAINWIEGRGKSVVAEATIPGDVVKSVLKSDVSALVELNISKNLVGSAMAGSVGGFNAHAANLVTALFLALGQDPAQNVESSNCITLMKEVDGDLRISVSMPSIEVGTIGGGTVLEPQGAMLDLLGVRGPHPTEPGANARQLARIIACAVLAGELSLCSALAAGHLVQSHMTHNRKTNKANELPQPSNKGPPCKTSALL

Dfm1-5Ashp (from UniProt Q12743 1-341) (natural protein)
< 5%: all assays above
